# According to article PMC4741959, “Methionine adenosyltransferase α2 sumoylation positively regulate Bcl-2 expression in human colon and liver cancer cells”:
# B1: Bcl-2 P2 promoter probe 2 (site 2) (dsDNA)
# DNA 1: GGTTTAATGTAACTTTCAATGG
# DNA 2: CCATTGAAAGTTACATTAAACC
# B2: Bcl-2 P2 promoter probe 1 (site 1) (dsDNA)
# DNA 1: TGCGGATTGACATTTCTGTGAA
# DNA 2: TTCACAGAAATGTCAATCCGCA
# B3: Bcl-2 P2 promoter probe 3 (site 3) (dsDNA)
# DNA 1: GGCAGCTTAATACATTCTTTTTAGCCG
# DNA 2: CGGCTAAAAAGAATGTATTAAGCTGCC
# Biological target: recombinant MATα2 (UniProt P31153 1-395)
# Sequence (P31153 whole entry): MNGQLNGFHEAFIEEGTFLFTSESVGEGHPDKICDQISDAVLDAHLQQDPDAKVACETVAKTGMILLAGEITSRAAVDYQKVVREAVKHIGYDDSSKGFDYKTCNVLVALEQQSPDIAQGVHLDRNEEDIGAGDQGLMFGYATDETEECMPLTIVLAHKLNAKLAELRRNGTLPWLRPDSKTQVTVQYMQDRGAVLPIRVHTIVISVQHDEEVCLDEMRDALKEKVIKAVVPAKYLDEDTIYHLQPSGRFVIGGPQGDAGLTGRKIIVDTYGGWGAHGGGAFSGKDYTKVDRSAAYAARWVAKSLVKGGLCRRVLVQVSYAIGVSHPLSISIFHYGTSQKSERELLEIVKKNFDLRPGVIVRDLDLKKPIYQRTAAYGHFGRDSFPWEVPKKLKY
# Assay: EMSA; 200 ng protein; LightShift Chemiluminescent EMSA Kit protocol (Thermo); buffer, salt, pH and binding temperature not stated
# Settings: label: biotin (extract EMSA), SYBR Green gel stain with recombinant protein, blunt
row,Binder,binding result
1,B1,binds
2,B2,binds
3,B3,binds
